The record followed here is paper PMC11217292.

The experiment has as its target OSM-3 H207Q mutant, EGFP tagged (C. elegans) (UniProt P46873).
UniProt P46873, sequence (P46873 whole entry H207Q): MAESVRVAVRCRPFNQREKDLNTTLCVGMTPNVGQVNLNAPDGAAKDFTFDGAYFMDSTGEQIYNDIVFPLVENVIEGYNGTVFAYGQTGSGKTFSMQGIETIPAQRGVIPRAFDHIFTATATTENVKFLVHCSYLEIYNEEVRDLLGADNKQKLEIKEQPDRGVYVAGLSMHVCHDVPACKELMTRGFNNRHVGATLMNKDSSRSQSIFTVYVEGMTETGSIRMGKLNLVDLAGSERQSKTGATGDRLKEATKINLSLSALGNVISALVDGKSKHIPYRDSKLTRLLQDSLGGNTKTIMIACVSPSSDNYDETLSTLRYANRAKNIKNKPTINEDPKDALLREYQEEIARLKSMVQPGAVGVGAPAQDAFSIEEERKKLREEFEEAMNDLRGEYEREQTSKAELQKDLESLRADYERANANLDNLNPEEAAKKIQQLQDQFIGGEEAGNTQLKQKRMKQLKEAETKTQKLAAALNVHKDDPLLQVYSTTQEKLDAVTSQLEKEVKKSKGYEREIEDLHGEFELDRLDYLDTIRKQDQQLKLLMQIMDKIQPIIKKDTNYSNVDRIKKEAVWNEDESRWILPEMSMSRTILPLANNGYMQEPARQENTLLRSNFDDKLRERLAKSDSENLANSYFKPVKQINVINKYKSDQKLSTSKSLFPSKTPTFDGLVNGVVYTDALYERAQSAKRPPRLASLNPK

microtubules (complex): the microtubule-stimulated ATPase activity relative to wild-type OSM-3 (set to 100%) is 18%.
